Biological target: T1, human VEGF-A residues 27-191 of Accession # AAV38412 (human, UniProt P15692 27-191)
T1 construct: range 27-191
Assay: SPR (BIAcore T200), cited from Table 21
Description: Coupling running buffer was HBS-EP+ running buffer (10 mM HEPES, 150 mM sodium chloride, 3 mM EDTA 0.05% P-20, pH 7.4); assay running buffer was HBS-EP+ with 300 mM sodium chloride and 0.1 mg/mL BSA (Sigma A7906). […] For binding kinetics assay a series of cycles were performed, each cycle consisted of 1) mAb capture, 2) Ag or buffer injection, 3) dissociation phase and 4) regeneration. […] No capture of the antibody was made on the reference surface to serve for primary referencing and as a negative control. […] At the end of each cycle the surface was regenerated with 10 mM glycine, pH 1.5 at a flow rate of 60 μL/min in pulses of 60 and 10 sec. Binding data were fit to the 1:1 Langmuir model with mass transport term included using Biacore T200 Evaluation Software to determine the binding constants.

T1 sequence (P15692 other isoform, or with tags, fused parts or gaps limits assumed): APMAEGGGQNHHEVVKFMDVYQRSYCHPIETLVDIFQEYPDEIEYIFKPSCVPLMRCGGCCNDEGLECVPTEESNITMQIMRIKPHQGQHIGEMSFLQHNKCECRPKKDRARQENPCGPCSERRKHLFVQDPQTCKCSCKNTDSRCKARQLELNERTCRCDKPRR

B1: bevacizumab variant H97F (taken as IgG format) (antibody, name in Kabat numbering, V domains shown)
VH: EVQLVESGGGLVQPGGSLRLSCAASGYTFTNYGMNWVRQAPGKGLEWVGWINTYTGEPTYAADFKRRFTFSLDTSKSTAYLQMNSLRAEDTAVYYCAKYPFYYGSSHWYFDVWGQGTLVTVSS
VL: DIQMTQSPSSLSASVGDRVTITCSASQDISNYLNWYQQKPGKAPKVLIYFTSSLHSGVPSRFSGSGSGTDFTLTISSLQPEDFATYYCQQYSTVPWTFGQGTKVEIKR
notes: also called H97F mutation alone
fold improvement in off-rate over wild type: > 6 fold
